Results on 1 substance are retold here after US20250367270A1.

pKd: −log10 of the molar value.

In the test the target is SARS-CoV-2 recombinant spike HexaPro protein (SARS-CoV-2) (UniProt P0DTC2). The experiment in a line: SPR. Particulars: Fc fusion.

As a reminder, the pKd is the negative decadic logarithm of the Kd, by convention in mol/L. On to FcACE2 dimer construct (Fc-linker-ACE2), for which the pKd is 9.37.
